Data published in IntAct's records for PubMed 12093730.

B1: Guanine nucleotide exchange factor SopE (Salmonella typhimurium), O52623 (parent)
chain: MTKITLSPQNFRIQKQETTLLKEKSTEKNSLAKSILAVKNHFIELRSKLSERFISHKNTESSATHFHRGSASEGRAVLTNKVVKDFMLQTLNDIDIRGSASKDPAYASQTREAILSAVYSKNKDQCCNLLISKGINIAPFLQEIGEAAKNAGLPGTTKNDVFTPSGAGANPFITPLISSANSKYPRMFINQHQQASFKIYAEKIIMTEVAPLFNECAMPTPQQFQLILENIANKYIQNTP

Variants of: B1
Settings: with cdc42_human CDC42, P60953
Sequence of cdc42_human CDC42, P60953 (P60953 whole entry, looked up): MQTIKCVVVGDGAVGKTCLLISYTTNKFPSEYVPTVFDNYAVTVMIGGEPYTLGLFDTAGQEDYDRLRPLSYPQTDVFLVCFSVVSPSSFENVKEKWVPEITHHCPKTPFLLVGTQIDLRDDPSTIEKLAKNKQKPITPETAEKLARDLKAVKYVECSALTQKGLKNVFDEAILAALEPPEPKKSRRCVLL

Variant | effect of a mutation on the interaction
G168A | decreasing interaction
